The record followed here is patent CN112048019A (LUNAN PHARMACEUTICAL GROUP CORP, dated 2020).

A word on the EC50: it is the concentration that produces a half-maximal response. Read a high EC50 as a need for much substance. For orientation: Kd means a measure of binding affinity in units of concentration. Read a low Kd as higher affinity. The koff is the rate constant with which the complex falls apart. A high value points to fast dissociation. As a reminder, the kon is the second-order rate constant of association.

The target of one assay is T1, 重组CD47-Fc融合蛋白 (human, UniProt Q08722 19-139, limits assumed).
T1 construct: not shown: Fc part
T1 sequence (Q08722 19-139 limits assumed): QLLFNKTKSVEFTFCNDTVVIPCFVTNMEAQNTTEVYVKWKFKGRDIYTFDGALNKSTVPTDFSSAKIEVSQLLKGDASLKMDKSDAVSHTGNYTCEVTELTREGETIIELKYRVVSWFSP
Kind of assay: competition ELISA: CD47-Fc coated, antibody blocks binding of SIRPα-His, anti-His-HRP detection. A general note: ELISA stands for enzyme-linked immunosorbent assay.

The next assay deals with CD47-his蛋白 (human). Kind of assay: screening ELISA of hybridoma supernatant on coated CD47-his.
Chain of CD47-his蛋白 (human) (chain, as listed by the source limits assumed): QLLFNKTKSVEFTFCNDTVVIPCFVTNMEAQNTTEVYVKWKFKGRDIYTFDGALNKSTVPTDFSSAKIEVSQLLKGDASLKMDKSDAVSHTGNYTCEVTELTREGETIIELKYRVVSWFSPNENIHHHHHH
In assay [1] the target is CD47蛋白 (analyte in the ForteBio assay) (human, UniProt Q08722 19-139, limits assumed). Description: BLI (ForteBio), antibody captured on Protein A sensor, CD47 protein in solution at 6 concentrations. Background: Biolayer interferometry detects binding as a change in optical thickness at a sensor tip.
Chain of CD47蛋白 (analyte in the ForteBio assay) (Q08722 19-139 limits assumed): as the sequence (Q08722 19-139 limits assumed) above

B1: 抗CD47单克隆抗体3D8 (杂交瘤细胞株3D8, CGMCC No:17293) (antibody, V domains shown)
VH: EVKLQESGAELMKPGASVKISCKATGYTFSRYWIEWVKQRPGHGLEWIGDILPGTSNTNYNEKFKGKATFTADSSSNTAYMQLSSLTSEDSAVYYCARRGLLRFDCWGQGTTVTVSS
VL: DIQLTQSPAIMSASPGEKVTMTCRASSSVSSSYLHWYQQKSGASPKLWIYSSSTLASGVPARFSGSGSGTSYSLTISSVEAEDAATYYCQQYSGYPLTFGSGTKLGIKR
For B1, the EC50 in the assay with 重组CD47-Fc融合蛋白 was found to be 0.17 nM. Further, in the assay with CD47-his蛋白, the binding result is on record as “binds”. In assay [1], this molecule registered a Kd of 0.0129 nM, a koff of 1.1e-05 s⁻¹ and a kon of 853000 M⁻¹ s⁻¹.
